Series [1] concerns the target T1, CsgE-his (pNH27) (Escherichia coli), P0AE95.
T1 chain: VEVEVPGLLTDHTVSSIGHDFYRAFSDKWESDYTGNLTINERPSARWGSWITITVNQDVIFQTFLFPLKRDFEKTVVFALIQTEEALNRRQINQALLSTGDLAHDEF
The series can be described thus: cryo-EM structure. As to conditions: remark: other sources report otherwise.

The target in series [2] is T1, CsgE-his (pNH27) (Escherichia coli), …. The series can be described thus: negative-stain EM. To be noted: remark: other sources report otherwise.
The target is the same in series [3]. The series can be described thus: cryo-EM class averages. To be noted: remark: other sources report otherwise.
For series [4] the target is unchanged. The series can be described thus: SEC. As to conditions: remark: other sources report otherwise.
Series [5] concerns the molecule itself. Nature of the series: SEC + other: negative-stain EM.
The series “cryo-EM structure” deals with the molecule itself. The series can be described thus: cryo-EM structure.
Series [6] concerns the molecule itself. The series can be described thus: SEC + other: negative-stain EM. This is another data set of the same source.

Where a chain is given by its changes, count along the chain named. Values joined by “and” are separate entries in the source; they are usually repeats but may differ in a detail not shown here. Equal values may be shown once.

By stoichiometry N is commonly meant the number of molecules, sites or subunits per partner or assembly.

B1: CsgE-his (pNH27), P0AE95 23-129 (natural protein)
chain: T1 chain
For the molecule B1, the stoichiometry N in series [1] turned out to be 9; in series [2] it was 9; in series [3] it was 9; in series [4], 9.16.

B2: CsgGC1S, non-lipidated soluble periplasmic form, C-terminally StrepII-tagged (pPG2) (natural protein, Escherichia coli, UniProt P0AEA2 16-277, looked up)
chain: SLTAPPKEAARPTLMPRAQSYKDLTHLPAPTGKIFVSVYNIQDETGQFKPYPASNFSTAVPQSATAMLVTALKDSRWFIPLERQGLQNLLNERKIIRAAQENGTVAINNRIPLQSLTAANIMVEGSIIGYESNVKSGGVGARYFGIGADTQYQLDQIAVNLRVVNVSTGEILSSVNTSKTILSYEVQAGVFRFIDYQRLLEGEVGYTSNEPVMLCLMSAIETGVIFLINDGIDRGLWDLQNKAERQNDILVKYRHMSVPPES
As to B2, in series [5], the “stoichiometry N” value was 16 and 8.

B3: CsgG, native membrane-extracted, C-terminally StrepII-tagged (pPG1) (natural protein, Escherichia coli, UniProt P0AEA2 16-277, looked up)
chain: B2 chain with S1C
modifications: diacylglycerol- and amide-linked acyl chain on the N-terminal Cys (lipid anchor)
As to B3, the “stoichiometry N” value in “cryo-EM structure” turned out to be 9; in series [6] it was 18.

For the origin of these results see article PMC4268158 (Nature, 2014).
